Here are results for 6 molecules from paper PMC10341521, “Rapid Generation and Molecular Docking Analysis of Single-Chain Fragment Variable (scFv) Antibody Selected by Ribosome Display Targeting Cholecystokinin B Receptor (CCK-BR) for Reduction of Chronic Neuropathic Pain” (International Journal of Molecular Sciences, 2023).

Test [1] addresses T1, mouse CCK-B receptor peptide (custom 15-amino-acid extracellular mouse sequence) (Mus musculus, UniProt P56481).
T1 chain: CETPRIRGTGTRELE

In test [2] the target is T1, mouse CCK-B receptor peptide (custom …). Put plainly: ELISA; indirect ELISA of the scFvs on CCK-B receptor peptide, concentration-dependent; apparent affinity; methods in the supplementary section. The note with it: both partners purified.
For test [3] the target is unchanged. Put plainly: not stated.
In test [4] the target is T2, mouse CCK-B receptor peptide (custom 15-amino-acid extracellular mouse sequence) (mouse).
T2 chain: CETPRIRGTGTRELE
Put plainly: BLI. A general note: Biolayer interferometry detects binding as a change in optical thickness at a sensor tip.

For test [5], the target named is T1, mouse CCK-B receptor peptide (custom …). Put plainly: BLI; Octet RED384 instrument; scFv77-2 and mouse CCK-B peptide. The note with it: both partners purified.

In general, Kd refers to the constant that tells how readily two partners part at equilibrium. Read a high Kd as weaker binding. As a reminder, the koff is the rate constant with which the complex falls apart.

Read-outs that look alike come from different tables or passages of the source.

B1: CCK-BR_scFv11-2 (antibody, V domains shown)
VH: QVQLKQSGAELVRPGSSVKISCKASGYAFTNYLIEWVKQRPGQGLEWIGQIYPGDGDTNYNGKFKGKATLTVDNSSSTAYMELRSLTSEDSAVYYCARAATWYYAMDYWGQGTSVTVSS
VL: QIVLTQSPAIMSASPGEKVTITCSASSSVSYMHWFQQKPGTSPKLWIYSTSNLASGVPARFSGSGSGTSYSLTISSMEAEDAASYFCHQWSSYPWTFGGGTKLEIK
Turning to B1, the binding result in test [1] is “binds”.

B2: CCK-BR_scFv8-3 (antibody, V domains shown)
VH: QVQLKESGAELAKPGASVKMSCKASGYTFTSYWMHWVKQRPGQGLEWIGYINPSTGYTEYNQKFKDKATLTADKSSSTAYMQLSSLTSEDSAVYYCARDYGSSFDYWGQGTTLTVSS
VL: DVVMTQTPLTLSVTIGQPASISCKSSQSLLDSGNQKNYLAWYQQKPGQPPKLLIYGASTRESGVPDRFTGSGSGTDFTLTISSVQAEDLAVYYCQNDHSYPYTFGGGTKLEIK
Regarding B2, the binding result in test [1] is given as “binds”.

B3: CCK-B scFv134-1 antibody (scFv, V domains shown)
VH: EVQLQQSGAELVKPGASVKMSCKASGYTFTDYWMHWVKQRPGQGLEWIGAIDTSDSYTSYNQKFKGKATLTVDKSSSTAYIQLSSLTSEDSAVYYCARSEGYLPFDYWGQGTTLTVSS
VL: DVVMTQTPLSLPVSFGDQVSISCRSSQSLANSYGNTYLSWYLHKPGQSPQLLIYGISNRFSGVPDRFSGSGSGTDFTLKISTIKPEDLGMYYCLQGTHQPRTFGGGTKLEIK
notes: VH of scFv134-1; 20-amino-acid flexible linker, printed as the formula [(G4S)4] and written out from it; VL of scFv134-1; One of the panel of 7 anti-CCK-B receptor scFvs; Construct and methods are in the supplementary section; source: E. coli cytoplasm (pET32a expression vector), purified
For B3, in test [2], the binding result is given as “binds”.

B4: CCK-BR_scFv13-3 (antibody, V domains shown)
VH: EVQLQQSGAELVKPGASVKMSCKASGYTFTSYWMHWVKQRPGQGLEWIGYINPSTGYTEYNQKFKDKATLTADKSSSTAYMQLSSLTSEDSAVYYCAGDNYGYWYFDVWGAGTTVTVSS
VL: DIVMTQSPSSLSVSAGEKVTMSCKSSQSLLNSGNQKNYLAWYQQKPGQPPKLLIYGASTRESGVPDRFTGSGSGTDFTLTISSVQAEDLAVYYCQNDHSYPYTFGGGTKLEIK
As to B4, the binding result in test [1] was “binds”.

B5: CCK-B scFv77-2 antibody (scFv, V domains shown)
VH: EVQLQQSGAELVRSGASVKLSCTASGFNIKDYYIHWVKQRPEQGLEWIGWIDPENGDTEYAPKFQGKATMTADTSSNTAYLQLSSLTSEDTAVYYCNAGGRFAYWGQGTLVTVSA
VL: DIVMTQSPSSLSVSAGEKVTMSCKSSQSLLNSGNQKNYLAWYQQKPGQPPKLLIYGASTRESGVPDRFTGSGSGTDFTLTISSVQAEDLAVYYCQNDHSYPYTFGGGTKLEIK
notes: VH of scFv77-2; 20-amino-acid flexible linker, printed as the formula [(G4S)4] and written out from it; VL of scFv77-2; Selected by ribosome display from a library of immunised mice; Apparent mass 26 kDa on the gel; The His-tag is named only for the Western blots of tissue after injection; Construct and methods are in the supplementary section; also called CCK-BR scFv 77-2; CCKBR scFv 77-2; …
In the case of B5, the Kd came to 195 nM in test [3] and 17.9 nM in test [5]. This molecule registered a dissociation rate constant (koff) in test [4] of 0.000381 s⁻¹.

B6: CCK-BR_scFv93-1 (antibody, V domains shown)
VH: QVQLKESGPGLVAPSQSLSITCTVSGFSLTSYGVHWVRQPPGKGLEWLGVIWAGGSTNYNSALMSRLSISKDNSKSQVFLKMNSLQTDDTAMYYCARGLRGAMDYWGQGTSVTVSS
VL: DIVMTQSPSSLSVSAGEKVTMSCKSSQSLLASGNQNNYLAWHQQKPGRSPKMLIIWASTRESGVPDRFTGSGSGTDFTLTISSVQAEDVAVYYCQNDHSYPFTFGSGTKLEIK
Consider B6, for which the binding result in test [1] is recorded as “binds”.
